By Kd is commonly meant the constant that tells how readily two partners part at equilibrium. High values mean weaker binding, low ones tighter binding.

The source of these data is PMC12248280.

This test has as its target hDPP4-Fc (human DPP4 residues 39 to 766 fused at its C terminus to the Fc domain of human IgG) (human) (UniProt P27487). The test can be described thus: BLI.
Chain of UniProt P27487 (P27487 39-766): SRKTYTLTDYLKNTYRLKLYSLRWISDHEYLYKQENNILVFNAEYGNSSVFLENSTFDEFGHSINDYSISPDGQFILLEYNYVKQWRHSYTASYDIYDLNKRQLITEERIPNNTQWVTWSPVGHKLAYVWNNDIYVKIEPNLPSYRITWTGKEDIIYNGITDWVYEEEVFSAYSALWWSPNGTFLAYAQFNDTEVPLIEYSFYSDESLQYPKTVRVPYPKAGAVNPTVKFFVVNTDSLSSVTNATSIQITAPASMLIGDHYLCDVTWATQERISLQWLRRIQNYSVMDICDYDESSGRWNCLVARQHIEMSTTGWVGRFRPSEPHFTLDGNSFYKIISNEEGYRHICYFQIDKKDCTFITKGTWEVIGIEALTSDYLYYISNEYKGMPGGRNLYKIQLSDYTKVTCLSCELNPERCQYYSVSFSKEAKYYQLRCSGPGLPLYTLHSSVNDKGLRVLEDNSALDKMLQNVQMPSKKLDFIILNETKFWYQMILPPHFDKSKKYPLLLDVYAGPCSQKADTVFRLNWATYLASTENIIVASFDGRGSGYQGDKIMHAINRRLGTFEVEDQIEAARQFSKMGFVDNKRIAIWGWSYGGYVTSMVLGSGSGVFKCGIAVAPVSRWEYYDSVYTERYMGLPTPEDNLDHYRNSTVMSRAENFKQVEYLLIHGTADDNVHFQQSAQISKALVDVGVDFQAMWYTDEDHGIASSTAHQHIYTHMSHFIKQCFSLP

In the case of “GD-BatCoV-S (GD-BatCoV S-trimer, GD-BatCoV-S-6P) (domain or fragment)”, the Kd came to 5.3 nM.
